Ends that are not written are not given here.
What was measured:
Details in all cases: both partners purified
[1] = biological target: T1, recombinant bactericidal/permeability-increasing protein (rBPI) (human, UniProt P17213 32-487, labelled with NT647 (NHS labelling kit) in the MST experiments only); test: NanoDSF (thermal shift)
T1 construct: also called rBPI NT647
T1 sequence (looked up): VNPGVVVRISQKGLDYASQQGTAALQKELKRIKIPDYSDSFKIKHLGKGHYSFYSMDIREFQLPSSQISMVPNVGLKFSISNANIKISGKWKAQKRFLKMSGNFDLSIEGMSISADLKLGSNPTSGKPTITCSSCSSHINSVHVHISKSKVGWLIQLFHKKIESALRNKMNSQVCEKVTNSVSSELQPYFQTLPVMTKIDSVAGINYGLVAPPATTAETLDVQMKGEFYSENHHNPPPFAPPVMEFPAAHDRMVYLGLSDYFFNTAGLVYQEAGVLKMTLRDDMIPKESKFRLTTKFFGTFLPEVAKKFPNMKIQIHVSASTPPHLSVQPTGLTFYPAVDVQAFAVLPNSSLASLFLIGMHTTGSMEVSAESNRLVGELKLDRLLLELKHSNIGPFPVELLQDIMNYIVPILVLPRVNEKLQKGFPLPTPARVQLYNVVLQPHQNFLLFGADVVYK

[2] = biological target: T1, recombinant …; test: ELISA; BPI microtiter binding assay, competition: 20 nM BPI pre-incubated 30 min with increasing lipopeptide, loaded on LPS biotin (2 μg/ml) on streptavidin plates, 1 h 37°C; 150 mM NaCl, 50 mM HEPES, 1 g/l BSA; bound BPI detected with anti-human BPI antibody
[3] = biological target: T1, recombinant …; test: MST

B1: (R)-Pam2CSK4 (peptide)
peptide: CSKKKK
modifications: not fully specified (residue 1); printed as (R)-Pam2CSK4
notes: also called di-acylated lipopeptide; source: synthetic peptide; bought: EMC Microcollections
- binding result [1]: binds

B2: PamCSK4 (peptide)
peptide: CSKKKK
modifications: not fully specified
notes: also called mono-acylated lipopeptide; source: synthetic peptide; bought: EMC Microcollections
- binding result [2]: binds

B3: (R)-Pam3CSK4 (peptide)
peptide: CSKKKK
notes: also called tri-acylated bLP; source: synthetic peptide; bought: EMC Microcollections
- Kd [3]: 0.162 ± 0.0235 µM
